Data published in PMC4109716.
Substitutions are numbered along the chain they refer to. Read-outs that look alike come from different tables or passages of the source.

Columns and labels:
Assay in all cases: smFRET
[1] = biological target: T1, POT1 (Homo sapiens, UniProt Q9NUX5 1-634)
T1 sequence: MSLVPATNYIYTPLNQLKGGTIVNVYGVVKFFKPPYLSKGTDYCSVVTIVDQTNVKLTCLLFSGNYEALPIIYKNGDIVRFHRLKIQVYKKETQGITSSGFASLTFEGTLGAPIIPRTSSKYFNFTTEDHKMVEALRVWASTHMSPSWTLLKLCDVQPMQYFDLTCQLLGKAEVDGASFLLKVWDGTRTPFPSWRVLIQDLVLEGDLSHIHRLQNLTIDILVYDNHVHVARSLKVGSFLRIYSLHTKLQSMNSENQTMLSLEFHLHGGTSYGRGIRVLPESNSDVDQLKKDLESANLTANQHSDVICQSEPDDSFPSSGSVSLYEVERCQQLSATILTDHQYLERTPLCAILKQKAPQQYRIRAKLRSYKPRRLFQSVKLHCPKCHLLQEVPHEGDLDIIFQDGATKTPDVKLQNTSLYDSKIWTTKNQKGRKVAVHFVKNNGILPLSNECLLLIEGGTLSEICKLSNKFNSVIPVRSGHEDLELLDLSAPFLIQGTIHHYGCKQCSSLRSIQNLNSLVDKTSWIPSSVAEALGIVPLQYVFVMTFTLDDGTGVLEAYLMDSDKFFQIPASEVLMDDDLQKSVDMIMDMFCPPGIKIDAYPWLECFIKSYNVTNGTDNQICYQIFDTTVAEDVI

[2] = biological target: T2, POT1;TPP1N (Homo sapiens;Homo sapiens?, UniProt Q9NUX5;Q96AP0 1-634;3-248, |)
[3] = biological target: T1, POT1; remark: listed apart in the source
[4] = biological target: T1, POT1; remark: listed apart in the source
[5] = biological target: T2, POT1;TPP1N; remark: listed apart in the source
[6] = biological target: T3, POT1;TPP1N-Alexa 647 (Homo sapiens;Homo sapiens?, UniProt Q9NUX5;Q96AP0 1-634;3-248, |)
[7] = biological target: T3, POT1;TPP1N-Alexa 647; remark: listed apart in the source
[8] = biological target: T1, POT1; remark: listed apart in the source
[9] = biological target: T1, POT1; remark: listed apart in the source
[10] = biological target: T1, POT1; remark: listed apart in the source
[11] = biological target: T3, POT1;TPP1N-Alexa 647; remark: listed apart in the source

T3 sequence (Q96AP0 3-248, one chain of several): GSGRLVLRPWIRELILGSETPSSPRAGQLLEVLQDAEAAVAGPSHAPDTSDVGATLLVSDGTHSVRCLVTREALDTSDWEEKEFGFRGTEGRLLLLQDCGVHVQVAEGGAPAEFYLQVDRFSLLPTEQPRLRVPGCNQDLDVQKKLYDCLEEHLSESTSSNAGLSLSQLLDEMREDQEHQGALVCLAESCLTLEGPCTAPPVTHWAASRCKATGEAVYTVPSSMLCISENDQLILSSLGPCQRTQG
T2 sequence (Q96AP0 3-248, one chain of several): as above

B1: G2 (mixed)
DNA 1: TGGCGACGGCAGCGAGGCTTAGGGTTAGGG
DNA 2: GCCTCGCTGCCGTCGCCA
[1]
  binding result: binds

B2: G4 (24 nt FRET) (mixed)
DNA 1: TGGCGACGGCAGCGAGGCTTAGGGTTAGGGTTAGGGTTAGGG
DNA 2: GCCTCGCTGCCGTCGCCA
[2]
  binding result: binds
[3]
  binding result: binds

B3: G4 (18 nt Cy3) (mixed)
DNA 1: B2 DNA 1
DNA 2: GCCTCGCTGCCGTCGCCA
modifications: internal Cy3 in strand 1 after nt 36
[4]
  binding result: binds
[5]
  binding result: binds

B4: G2-mut2 (unlabelled stem strand) (mixed)
DNA 1: B2 DNA 1 with A33T, G36C, A39T, G42C
DNA 2: GCCTCGCTGCCGTCGCCA
[6]
  binding result: binds

B5: G4 (6 nt Cy3) (mixed)
DNA 1: B2 DNA 1
DNA 2: GCCTCGCTGCCGTCGCCA
modifications: internal Cy3 in strand 1 after nt 24
[4]
  binding result: binds

B6: G4 (3'Cy3, unlabelled stem strand) (mixed)
DNA 1: B2 DNA 1
DNA 2: GCCTCGCTGCCGTCGCCA
[7]
  binding result: binds

B7: G2-mut2 (FRET with Cy5 stem) (mixed)
DNA 1: B2 DNA 1 with A33T, G36C, A39T, G42C
DNA 2: GCCTCGCTGCCGTCGCCA
[8]
  binding result: binds

B8: G3 (mixed)
DNA 1: TGGCGACGGCAGCGAGGCTTAGGGTTAGGGTTAGGG
DNA 2: GCCTCGCTGCCGTCGCCA
[9]
  binding result: binds

B9: OB2 mutant (mixed)
DNA 1: TGGCGACGGCAGCGAGGCTTAGGGTTTT
DNA 2: GCCTCGCTGCCGTCGCCA
[10]
  binding result: binds

B10: G2-mut4 (unlabelled stem strand) (mixed)
DNA 1: TGGCGACGGCAGCGAGGCTTAGGGTTAGGGTTTGGCTTTGGCTTTGGCTTTGGC
DNA 2: GCCTCGCTGCCGTCGCCA
[11]
  binding result: binds
